Key:
[1] = test system: ovariectomized het and ntg mice; test: ovx-induced osteopenia in het and ntg mice treated with 17β-estradiol; format: in vivo, mouse; conditions: both het and ntg; ovariectomized at 9 weeks; 10 μg/kg/day 17β-estradiol for 35 days
Method: To determine whether the mutation had any effect on ovx-induced osteopenia, het and ntg mice were ovariectomized at 9 weeks of age and treated for 35 days with vehicle or 10 μg/kg/day 17β-estradiol (E2). The percent change in total, trabecular and cortical density in het and ntg ovx mice from those values in their respective sham operated controls were determined. […] Ovariectomy induced a 14.3% decrease in total BMD (696±6 to 597±7 mg/cm^3) and a 26.3% decrease in trabecular BMD (445±9 to 328±7 mg/cm^3) in the het group and a 14.9% decrease in total BMD (470±10 to 400±7 mg/cm^3) and 37.6% decrease in trabecular BMD (132±4 to 82±2 mg/cm^3) in the ntg group.

[2] = target: LRP5 (Homo sapiens, UniProt O75197); test: Dkk-1 binding to LRP5; conditions: observed by the inventors
Source text: 1, 2002, and 60/361,293 filed Mar. 4, 2002. The two-hybrid screen is a common procedure in the art, which is described, for example, by Gietz et al., Mol. Cell. Biochem. 172:67-79 (1997); Young, Biol. Reprod. 58:302-11 (1998); Brent and Finley, Ann. Rev. Genet. 31:663-704 (1997); and Lu and Hannon, eds., Yeast Hybrid Technologies, Eaton Publishing, Natick Mass., (2000).
(§1) It may be that the reduced effectiveness of Dkk inhibition of LRP5 which is observed for HBM is not necessarily mediated by enhancing or preventing the binding of Dkk to LRP5/LRP6/HBM. More than one mechanism may be involved. […] Further, it has been observed that different members of the Dkk family differentially affect LRP5/LRP6/HBM activity. Rather, the more preferred approach is to develop a drug or therapy which results in the desired protective benefits by reproducing as nearly as possible the subtle effect of HBM. The ability to refine and test potential drugs and therapies by comparing their effects to an animal model of HBM is among the major features of the present invention.

[3] = test system: canonical Wnt signaling; conditions: cited from earlier work
[4] = test system: HBM-mediated Wnt signaling; test: Dkk-1 repression of HBM-mediated Wnt signaling; format: cell-based; conditions: compared with LRP5-mediated signaling
Source text: (§2) 1, 2002, and 60/361,293 filed Mar. 4, 2002. This observation is of particular interest because the HBM mutation in LRP5 is a gain of function or activation mutation. That is, Wnt signaling, via the canonical pathway, is enhanced with HBM versus LRP5. Not wishing to be bound by theory, it is believed that this interaction provides an explanation of the developmental signaling differences between HBM and the more common LRP5/LRP6.

[5] = target: HBM (Homo sapiens, UniProt O75197, G171V); test: Dkk-1 binding to HBM; conditions: observed by the inventors
Source text: as §1

[6] = target: T1, LRP6 (Homo sapiens, UniProt O75581); test: Dkk-1 binding to LRP6; conditions: observed by the inventors
Source text: as §1

[7] = test system: LRP5-mediated Wnt signaling; test: Dkk-1 repression of LRP5-mediated Wnt signaling; format: cell-based
Source text: as §2

[8] = test system: Wnt pathway; test: Xenopus embryo assay of Wnt pathway stimulation; format: in vivo; conditions: for stimulation of the Wnt pathway: in combination with Wnt5a
Source text: Axin was also identified from the two hybrid experiments. This protein is involved in inhibition of the Wnt signaling pathway and interacts with the tumor suppressor APC. There is a link here with the focal adhesion signaling described above: one common step in the two pathways involves inhibition of glycogen synthase kinase 3, which in turn results in the activation of β-catenin/Lef-1 and AP-1 transcription factors. Axin/APC are involved in this as well as integrin linked kinase. The Wnt pathway has a role in determining cell fates during embryogenesis. If inappropriately activated, the Wnt pathway may also lead to cancer. The Wnt pathway also seems to have a role in cytoskeletal rearrangements. […] A model depicting LRP5 involvement in focal adhesion signaling is depicted in FIG. 15.

[9] = target: T1, LRP6; conditions: Mao et al.; cited from earlier work
[10] = target: T1, LRP6; conditions: Semenov et al.; cited from earlier work
[11] = test system: LRP5 G171V transgenic (het) and non-transgenic littermate (ntg) mice; test: hPTH treatment of LRP5 G171V transgenic and non-transgenic mice, femoral density by pQCT; format: in vivo, mouse; conditions: for Percent Change in Bone Mass Density After 30 Days of hPTH Treatment, cortical, ntg / Percent Change in Bone Mass Density After 30 Days of hPTH Treatment, cortical, transgenic / Percent Change in Bone Mass Density After 30 Days of hPTH Treatment, total, ntg / Percent Change in Bone Mass Density After 30 Days of hPTH Treatment, total, transgenic / Percent Change in Bone Mass Density After 30 Days of hPTH Treatment, trabecular, ntg / Percent Change in Bone Mass Density After 30 Days of hPTH Treatment, trabecular, transgenic: left femur pQCT, vs vehicle controls
Method: In order to further examine increases in bone density that were detected in select transgenic lines through monitoring of the animals by non-invasive bone imaging, necropsies were performed on animals of these lines at 5 and 9 weeks of age for direct bone densitometric and histologic analysis. The left femur was isolated, cleaned and positioned in an XCT Research peripheral Quantitative Computed Tomograph (pQCT; Stradtec Medizintechnik, Pforzheim, Germany). The distal end of the femur was located and pQCT scanning was initiated 2.5 mm proximal from this point for total and trabecular measurements. The pQCT scan for cortical measurements was initiated 3.5 mm proximal from the first scan (i.e., 6 mm proximal from the distal end). […] The soft tissue was automatically removed using an iterative algorithm, and the density of the remaining bone (total density) in the first slice was determined. The outer 55% of the bone was then peeled away in a concentric spiral and the density of the remaining bone (trabecular density) of the first slice was reported in mg/cm^3. In the second slice, the boundary between cortical and trabecular bone was determined using an iterative algorithm, and the density of the cortical bone was determined.
[…] Total, trabecular and cortical densities were measured in excised left femur by pQCT. PTH response was normalized to the bone densities of the vehicle group and expressed as percent change from their respective vehicle controls.

[12] = extracellular domains, absence of Wnt5a
[13] = ntg animals, treatment with PTH

T1 sequence (O75581 20-1613, species assumed): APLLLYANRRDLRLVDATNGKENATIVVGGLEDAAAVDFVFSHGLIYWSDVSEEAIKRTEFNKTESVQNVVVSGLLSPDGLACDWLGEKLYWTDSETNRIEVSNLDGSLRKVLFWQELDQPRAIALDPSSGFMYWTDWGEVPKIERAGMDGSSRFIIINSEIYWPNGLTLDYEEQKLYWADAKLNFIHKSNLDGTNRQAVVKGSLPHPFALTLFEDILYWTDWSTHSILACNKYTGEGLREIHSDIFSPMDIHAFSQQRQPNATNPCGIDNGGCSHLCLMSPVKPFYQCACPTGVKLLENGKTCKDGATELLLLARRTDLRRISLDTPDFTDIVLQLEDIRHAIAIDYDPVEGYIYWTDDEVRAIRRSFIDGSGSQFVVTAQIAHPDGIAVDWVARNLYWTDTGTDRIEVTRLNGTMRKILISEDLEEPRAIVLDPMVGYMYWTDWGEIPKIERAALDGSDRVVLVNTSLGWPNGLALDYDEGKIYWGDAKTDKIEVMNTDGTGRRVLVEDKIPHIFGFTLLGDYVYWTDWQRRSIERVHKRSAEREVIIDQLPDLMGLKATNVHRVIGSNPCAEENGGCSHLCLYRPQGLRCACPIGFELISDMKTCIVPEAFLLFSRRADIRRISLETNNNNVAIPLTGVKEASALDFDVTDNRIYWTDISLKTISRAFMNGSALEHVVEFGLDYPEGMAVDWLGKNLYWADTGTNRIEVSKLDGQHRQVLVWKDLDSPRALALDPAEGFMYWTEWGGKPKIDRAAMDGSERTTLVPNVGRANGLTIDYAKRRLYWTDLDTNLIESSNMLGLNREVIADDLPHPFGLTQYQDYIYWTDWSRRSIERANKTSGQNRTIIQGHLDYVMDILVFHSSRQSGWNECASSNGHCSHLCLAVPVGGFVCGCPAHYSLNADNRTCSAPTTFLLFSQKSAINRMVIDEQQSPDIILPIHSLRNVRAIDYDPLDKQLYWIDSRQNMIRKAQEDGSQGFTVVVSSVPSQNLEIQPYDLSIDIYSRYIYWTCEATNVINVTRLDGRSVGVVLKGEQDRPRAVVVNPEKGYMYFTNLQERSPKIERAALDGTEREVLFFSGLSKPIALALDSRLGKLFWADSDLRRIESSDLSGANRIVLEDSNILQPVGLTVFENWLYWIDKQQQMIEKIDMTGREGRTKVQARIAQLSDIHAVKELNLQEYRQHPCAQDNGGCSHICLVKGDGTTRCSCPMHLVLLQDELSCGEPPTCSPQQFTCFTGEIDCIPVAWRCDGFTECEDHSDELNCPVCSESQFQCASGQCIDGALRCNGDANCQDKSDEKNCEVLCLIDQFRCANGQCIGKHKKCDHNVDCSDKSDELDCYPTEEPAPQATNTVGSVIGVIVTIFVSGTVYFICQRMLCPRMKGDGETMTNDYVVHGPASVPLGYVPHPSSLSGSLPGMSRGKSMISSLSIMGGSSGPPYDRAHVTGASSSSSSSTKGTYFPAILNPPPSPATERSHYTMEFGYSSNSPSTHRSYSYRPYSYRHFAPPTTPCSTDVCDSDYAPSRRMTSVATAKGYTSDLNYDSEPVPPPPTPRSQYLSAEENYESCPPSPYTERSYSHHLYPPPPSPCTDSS
Chain of HBM (O75197 32-1615 G171V): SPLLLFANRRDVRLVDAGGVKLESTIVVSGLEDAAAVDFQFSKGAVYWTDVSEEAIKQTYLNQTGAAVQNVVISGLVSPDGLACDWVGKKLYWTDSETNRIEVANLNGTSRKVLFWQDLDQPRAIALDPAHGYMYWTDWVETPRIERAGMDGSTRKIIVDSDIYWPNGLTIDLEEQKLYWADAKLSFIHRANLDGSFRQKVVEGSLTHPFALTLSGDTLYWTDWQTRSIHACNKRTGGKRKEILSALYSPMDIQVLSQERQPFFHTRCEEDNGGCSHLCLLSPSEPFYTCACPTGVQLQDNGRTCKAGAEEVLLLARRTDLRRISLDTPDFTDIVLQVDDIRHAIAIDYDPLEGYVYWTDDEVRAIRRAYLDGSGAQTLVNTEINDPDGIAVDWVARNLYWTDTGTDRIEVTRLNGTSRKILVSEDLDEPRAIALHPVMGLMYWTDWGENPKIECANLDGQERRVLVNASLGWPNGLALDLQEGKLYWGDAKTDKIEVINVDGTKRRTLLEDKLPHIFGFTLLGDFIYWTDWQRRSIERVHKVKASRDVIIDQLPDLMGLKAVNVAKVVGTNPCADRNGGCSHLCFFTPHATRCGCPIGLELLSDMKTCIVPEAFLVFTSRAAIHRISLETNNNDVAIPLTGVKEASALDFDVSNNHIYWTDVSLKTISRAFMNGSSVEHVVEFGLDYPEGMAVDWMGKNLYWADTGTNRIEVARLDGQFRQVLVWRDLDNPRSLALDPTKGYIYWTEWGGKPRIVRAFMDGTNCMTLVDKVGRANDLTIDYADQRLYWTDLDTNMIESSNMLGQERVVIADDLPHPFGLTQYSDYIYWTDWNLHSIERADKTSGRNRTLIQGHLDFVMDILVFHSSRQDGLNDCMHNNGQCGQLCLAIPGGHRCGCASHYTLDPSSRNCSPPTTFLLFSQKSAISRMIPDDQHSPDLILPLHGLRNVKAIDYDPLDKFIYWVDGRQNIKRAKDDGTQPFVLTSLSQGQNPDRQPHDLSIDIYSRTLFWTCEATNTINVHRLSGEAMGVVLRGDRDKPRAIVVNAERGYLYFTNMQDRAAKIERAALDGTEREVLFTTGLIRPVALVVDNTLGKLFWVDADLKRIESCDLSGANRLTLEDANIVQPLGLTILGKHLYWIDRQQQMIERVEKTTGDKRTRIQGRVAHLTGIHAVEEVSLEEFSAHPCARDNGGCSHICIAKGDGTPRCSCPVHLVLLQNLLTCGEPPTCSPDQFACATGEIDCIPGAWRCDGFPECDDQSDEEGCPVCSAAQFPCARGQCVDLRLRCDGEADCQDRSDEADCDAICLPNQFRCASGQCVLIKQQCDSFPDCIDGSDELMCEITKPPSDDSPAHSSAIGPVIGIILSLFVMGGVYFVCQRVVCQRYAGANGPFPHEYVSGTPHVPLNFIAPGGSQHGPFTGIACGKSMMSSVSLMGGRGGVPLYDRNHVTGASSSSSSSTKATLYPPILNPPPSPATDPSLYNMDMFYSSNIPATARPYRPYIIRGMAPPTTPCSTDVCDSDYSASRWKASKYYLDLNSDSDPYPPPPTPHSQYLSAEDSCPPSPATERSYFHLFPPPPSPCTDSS
Chain of LRP5 (O75197 32-1615): as the sequence (O75197 32-1615 G171V) above, with V140G counted along it

C[C@]12CC[C@@H]3c4ccc(O)cc4CC[C@H]3[C@@H]1CC[C@@H]2O [E2, 17β-estradiol]
ovx-induced bone loss [1]: completely prevented

Dkk-1: protein dickkopf-1, an antagonist of the Wnt pathway
binding to LRP5 [2]: binds | canonical Wnt signaling ([3]; Bafico et al., Dkk-1 added at extremely low concentrations (30 pM)): repression | repression of HBM-mediated Wnt signaling [4]: less effective | binding to HBM [5]: binds | binding to LRP6 [6]: binds | repression of LRP5-mediated Wnt signaling [7]: able to repress

HBM: protein identical to LRP5 except for an alteration of glycine 171 to valine
stimulation of the Wnt pathway [8]: much greater extent

LRP5 ECD: extracellular domain (ECD) of LRP5
stimulation of Wnt signaling [8, 12]: modest stimulation

LRP5: wild-type LRP5 protein (SEQ ID NO: 3)
stimulation of the Wnt pathway [8]: modestly above the control

B1: HBM ECD: extracellular domain (ECD) of HBM (protein, UniProt O75197 32-1384, looked up, variant G171V)
extracellular domain: SPLLLFANRRDVRLVDAGGVKLESTIVVSGLEDAAAVDFQFSKGAVYWTDVSEEAIKQTYLNQTGAAVQNVVISGLVSPDGLACDWVGKKLYWTDSETNRIEVANLNGTSRKVLFWQDLDQPRAIALDPAHGYMYWTDWVETPRIERAGMDGSTRKIIVDSDIYWPNGLTIDLEEQKLYWADAKLSFIHRANLDGSFRQKVVEGSLTHPFALTLSGDTLYWTDWQTRSIHACNKRTGGKRKEILSALYSPMDIQVLSQERQPFFHTRCEEDNGGCSHLCLLSPSEPFYTCACPTGVQLQDNGRTCKAGAEEVLLLARRTDLRRISLDTPDFTDIVLQVDDIRHAIAIDYDPLEGYVYWTDDEVRAIRRAYLDGSGAQTLVNTEINDPDGIAVDWVARNLYWTDTGTDRIEVTRLNGTSRKILVSEDLDEPRAIALHPVMGLMYWTDWGENPKIECANLDGQERRVLVNASLGWPNGLALDLQEGKLYWGDAKTDKIEVINVDGTKRRTLLEDKLPHIFGFTLLGDFIYWTDWQRRSIERVHKVKASRDVIIDQLPDLMGLKAVNVAKVVGTNPCADRNGGCSHLCFFTPHATRCGCPIGLELLSDMKTCIVPEAFLVFTSRAAIHRISLETNNNDVAIPLTGVKEASALDFDVSNNHIYWTDVSLKTISRAFMNGSSVEHVVEFGLDYPEGMAVDWMGKNLYWADTGTNRIEVARLDGQFRQVLVWRDLDNPRSLALDPTKGYIYWTEWGGKPRIVRAFMDGTNCMTLVDKVGRANDLTIDYADQRLYWTDLDTNMIESSNMLGQERVVIADDLPHPFGLTQYSDYIYWTDWNLHSIERADKTSGRNRTLIQGHLDFVMDILVFHSSRQDGLNDCMHNNGQCGQLCLAIPGGHRCGCASHYTLDPSSRNCSPPTTFLLFSQKSAISRMIPDDQHSPDLILPLHGLRNVKAIDYDPLDKFIYWVDGRQNIKRAKDDGTQPFVLTSLSQGQNPDRQPHDLSIDIYSRTLFWTCEATNTINVHRLSGEAMGVVLRGDRDKPRAIVVNAERGYLYFTNMQDRAAKIERAALDGTEREVLFTTGLIRPVALVVDNTLGKLFWVDADLKRIESCDLSGANRLTLEDANIVQPLGLTILGKHLYWIDRQQQMIERVEKTTGDKRTRIQGRVAHLTGIHAVEEVSLEEFSAHPCARDNGGCSHICIAKGDGTPRCSCPVHLVLLQNLLTCGEPPTCSPDQFACATGEIDCIPGAWRCDGFPECDDQSDEEGCPVCSAAQFPCARGQCVDLRLRCDGEADCQDRSDEADCDAICLPNQFRCASGQCVLIKQQCDSFPDCIDGSDELMCEITKPPSDDSPAHS
modifications: extracellular domain
stimulation of Wnt signaling ([8]; extracellular domain, presence of Wnt5a): slightly increased | stimulation of Wnt signaling [8, 12]: modest stimulation

B2: Dkk-2: Dkk family protein found to directly bind LRP6 (protein, UniProt Q9UBU2 34-259, looked up)
Dickkopf-related protein 2: KLNSIKSSLGGETPGQAANRSAGMYQGLAFGGSKKGKNLGQAYPCSSDKECEVGRYCHSPHQGSSACMVCRRKKKRCHRDGMCCPSTRCNNGICIPVTESILTPHIPALDGTRHRDRNHGHYSNHDLGWQNLGRPHTKMSHIKGHEGDPCLRSSDCIEGFCCARHFWTKICKPVLHQGEVCTKQRKKGSHGLEIFQRCDCAKGLSCKVWKDATYSSKARLHVCQKI
Kd [9]: 0.73 nM

B3: Dkk-1 mutant having cysteine 220 changed to alanine: Dkk-1 mutant having cysteine 220 changed to alanine (protein, UniProt O94907 32-266, looked up, variant C220A)
Dickkopf-related protein 1: TLNSVLNSNAIKNLPPPLGGAAGHPGSAVSAAPGILYPGGNKYQTIDNYQPYPCAEDEECGTDEYCASPTRGGDAGVQICLACRKRRKRCMRHAMCCPGNYCKNGICVSSDQNHFRGEIEETITESFGNDHSTLDGYSRRTTLSSKMYHTKGQEGSVCLRSSDCASGLCCARHFWSKICKPVLKEGQVATKHRRKGSHGLEIFQRCYCGEGLSCRIQKDHHQASNSSRLHTCQRH
repression of Wnt signaling ([3]; Semenov et al.): unable to repress | LRP6 binding [10]: abolished

B4: human parathyroid hormone (peptide, UniProt P01270 32-115, looked up)
Parathyroid hormone: SVSEIQLMHNLGKHLNSMERVEWLRKKLQDVHNFVALGAPLAPRDAGSQRPRKKEDNVLVESHEKSLGEADKADVNVLTKAKSQ
modifications: Parathyroid hormone
notes: human parathyroid hormone (hPTH), anabolic agent
Percent Change in Bone Mass Density After 30 Days of hPTH Treatment, cortical, ntg ([11]; Female): 4% | Percent Change in Bone Mass Density After 30 Days of hPTH Treatment, cortical, transgenic ([11]; Female): −1% | Percent Change in Bone Mass Density After 30 Days of hPTH Treatment, total, ntg ([11]; Female): 18% | Percent Change in Bone Mass Density After 30 Days of hPTH Treatment, total, transgenic ([11]; Female): 30% | Percent Change in Bone Mass Density After 30 Days of hPTH Treatment, trabecular, ntg ([11]; Female): −3% | Percent Change in Bone Mass Density After 30 Days of hPTH Treatment, trabecular, transgenic ([11]; Female): 59% | Percent Change in Bone Mass Density After 30 Days of hPTH Treatment, cortical, ntg ([11]; Male, hPTH 100 mg/kg/day sc): 3% | Percent Change in Bone Mass Density After 30 Days of hPTH Treatment, cortical, transgenic ([11]; Male, hPTH 100 mg/kg/day sc): 2% | Percent Change in Bone Mass Density After 30 Days of hPTH Treatment, total, ntg ([11]; Male, hPTH 100 mg/kg/day sc): 23% | Percent Change in Bone Mass Density After 30 Days of hPTH Treatment, total, transgenic ([11]; Male, hPTH 100 mg/kg/day sc): 37% | Percent Change in Bone Mass Density After 30 Days of hPTH Treatment, trabecular, ntg ([11]; Male, hPTH 100 mg/kg/day sc): 5% | Percent Change in Bone Mass Density After 30 Days of hPTH Treatment, trabecular, transgenic ([11]; Male, hPTH 100 mg/kg/day sc): 80% | total femoral BMD ([11]; both het and ntg, treatment with PTH): significant increase | trabecular bone compartment ([11]; het animals, treatment with PTH): increase | cortical bone [11, 13]: significant increase | trabecular BMD [11, 13]: no changes

— patent US7514594B2, “Transgenic animal model of bone mass modulation” (Wyeth, priority 2003, dated 2009)
